Data as given in patent US10919943B2, “Mutant proteins enabling agrochemical control of plant gene expression” (The Regents of the University of California, priority 2016, dated 2021).
Positions count from the first letter of the chain named. Names and notes keep the numbering of the source.

T1: PYR1 (Arabidopsis thaliana, UniProt O49686)
T1 construct: expressed in transfected cells; host or cells: S. cerevisiae strain Y190
T1 sequence (O49686 1-191): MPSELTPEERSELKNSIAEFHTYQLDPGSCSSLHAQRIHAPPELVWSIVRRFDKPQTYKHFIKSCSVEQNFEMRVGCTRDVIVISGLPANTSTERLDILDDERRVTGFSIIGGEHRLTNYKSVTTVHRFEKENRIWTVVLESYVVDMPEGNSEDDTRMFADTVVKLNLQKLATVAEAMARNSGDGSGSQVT

B1: W385C: HAB1 mutant (protein, UniProt Q9CAJ0 23-511, looked up, variant W385C)
Protein phosphatase 2C 16: SPVEITQLKNVTDAADLLSDSENQSFCNGGTECTMEDVSELEEVGEQDLLKTLSDTRSGSSNVFDEDDVLSVVEDNSAVISEGLLVVDAGSELSLSNTAMEIDNGRVLATAIIVGESSIEQVPTAEVLIAGVNQDTNTSEVVIRLPDENSNHLVKGRSVYELDCIPLWGTVSIQGNRSEMEDAFAVSPHFLKLPIKMLMGDHEGMSPSLTHLTGHFFGVYDGHGGHKVADYCRDRLHFALAEEIERIKDELCKRNTGEGRQVQWDKVFTSCFLTVDGEIEGKIGRAVVGSSDKVLEAVASETVGSTAVVALVCSSHIVVSNCGDSRAVLFRGKEAMPLSVDHKPDREDEYARIENAGGKVIQCQGARVFGVLAMSRSIGDRYLKPYVIPEPEVTFMPRSREDECLILASDGLWDVMNNQEVCEIARRRILMWHKKNGAPPLAERGKGIDPACQAAADYLSMLALQKGSKDNISIIVIDLKAQRKFKTRT
B2: G392R: HAB1 mutant (protein, UniProt Q9CAJ0 23-511, looked up, variant G392R)
Protein phosphatase 2C 16: B1 Protein phosphatase 2C 16 with C363W, G370R
B3: W385I: HAB1 mutant (protein, UniProt Q9CAJ0 23-511, looked up, variant W385I)
Protein phosphatase 2C 16: B1 Protein phosphatase 2C 16 with C363I
B4: R389G: HAB1 mutant (protein, UniProt Q9CAJ0 23-511, looked up, variant R389G)
Protein phosphatase 2C 16: B1 Protein phosphatase 2C 16 with C363W, R367G
B5: G392Q: HAB1 mutant (protein, UniProt Q9CAJ0 23-511, looked up, variant G392Q)
Protein phosphatase 2C 16: B1 Protein phosphatase 2C 16 with C363W, G370Q
B6: R389T: HAB1 mutant (protein, UniProt Q9CAJ0 23-511, looked up, variant R389T)
Protein phosphatase 2C 16: B1 Protein phosphatase 2C 16 with C363W, R367T
B7: R389D: HAB1 mutant (protein, UniProt Q9CAJ0 23-511, looked up, variant R389D)
Protein phosphatase 2C 16: B1 Protein phosphatase 2C 16 with C363W, R367D
B8: G392M: HAB1 mutant (protein, UniProt Q9CAJ0 23-511, looked up, variant G392M)
Protein phosphatase 2C 16: B1 Protein phosphatase 2C 16 with C363W, G370M
B9: R389C: HAB1 mutant (protein, UniProt Q9CAJ0 23-511, looked up, variant R389C)
Protein phosphatase 2C 16: B1 Protein phosphatase 2C 16 with C363W, R367C
B10: G392N: HAB1 mutant (protein, UniProt Q9CAJ0 23-511, looked up, variant G392N)
Protein phosphatase 2C 16: B1 Protein phosphatase 2C 16 with C363W, G370N
B11: G392L: HAB1 mutant (protein, UniProt Q9CAJ0 23-511, looked up, variant G392L)
Protein phosphatase 2C 16: B1 Protein phosphatase 2C 16 with C363W, G370L
B12: G392T: HAB1 mutant (protein, UniProt Q9CAJ0 23-511, looked up, variant G392T)
Protein phosphatase 2C 16: B1 Protein phosphatase 2C 16 with C363W, G370T
B13: G392W: HAB1 mutant (protein, UniProt Q9CAJ0 23-511, looked up, variant G392W)
Protein phosphatase 2C 16: B1 Protein phosphatase 2C 16 with C363W, G370W
B14: R389E: HAB1 mutant (protein, UniProt Q9CAJ0 23-511, looked up, variant R389E)
Protein phosphatase 2C 16: B1 Protein phosphatase 2C 16 with C363W, R367E
B15: W385D: HAB1 mutant (protein, UniProt Q9CAJ0 23-511, looked up, variant W385D)
Protein phosphatase 2C 16: B1 Protein phosphatase 2C 16 with C363D
B16: R389M: HAB1 mutant (protein, UniProt Q9CAJ0 23-511, looked up, variant R389M)
Protein phosphatase 2C 16: B1 Protein phosphatase 2C 16 with C363W, R367M
B17: R389L: HAB1 mutant (protein, UniProt Q9CAJ0 23-511, looked up, variant R389L)
Protein phosphatase 2C 16: B1 Protein phosphatase 2C 16 with C363W, R367L
B18: R389A: HAB1 mutant (protein, UniProt Q9CAJ0 23-511, looked up, variant R389A)
Protein phosphatase 2C 16: B1 Protein phosphatase 2C 16 with C363W, R367A
B19: F391E: HAB1 mutant (protein, UniProt Q9CAJ0 23-511, looked up, variant F391E)
Protein phosphatase 2C 16: B1 Protein phosphatase 2C 16 with C363W, F369E
B20: R389W: HAB1 mutant (protein, UniProt Q9CAJ0 23-511, looked up, variant R389W)
Protein phosphatase 2C 16: B1 Protein phosphatase 2C 16 with C363W, R367W
B21: R389K: HAB1 mutant (protein, UniProt Q9CAJ0 23-511, looked up, variant R389K)
Protein phosphatase 2C 16: B1 Protein phosphatase 2C 16 with C363W, R367K
B22: G392A: HAB1 mutant (protein, UniProt Q9CAJ0 23-511, looked up, variant G392A)
Protein phosphatase 2C 16: B1 Protein phosphatase 2C 16 with C363W, G370A
B23: G392C: HAB1 mutant (protein, UniProt Q9CAJ0 23-511, looked up, variant G392C)
Protein phosphatase 2C 16: B1 Protein phosphatase 2C 16 with C363W, G370C
B24: W385G: HAB1 mutant (protein, UniProt Q9CAJ0 23-511, looked up, variant W385G)
Protein phosphatase 2C 16: B1 Protein phosphatase 2C 16 with C363G
B25: W385Y: HAB1 mutant (protein, UniProt Q9CAJ0 23-511, looked up, variant W385Y)
Protein phosphatase 2C 16: B1 Protein phosphatase 2C 16 with C363Y
B26: R389F: HAB1 mutant (protein, UniProt Q9CAJ0 23-511, looked up, variant R389F)
Protein phosphatase 2C 16: B1 Protein phosphatase 2C 16 with C363W, R367F
B27: G392P: HAB1 mutant (protein, UniProt Q9CAJ0 23-511, looked up, variant G392P)
Protein phosphatase 2C 16: B1 Protein phosphatase 2C 16 with C363W, G370P
B28: W385K: HAB1 mutant (protein, UniProt Q9CAJ0 23-511, looked up, variant W385K)
Protein phosphatase 2C 16: B1 Protein phosphatase 2C 16 with C363K
B29: G392V: HAB1 mutant (protein, UniProt Q9CAJ0 23-511, looked up, variant G392V)
Protein phosphatase 2C 16: B1 Protein phosphatase 2C 16 with C363W, G370V
B30: G392Y: HAB1 mutant (protein, UniProt Q9CAJ0 23-511, looked up, variant G392Y)
Protein phosphatase 2C 16: B1 Protein phosphatase 2C 16 with C363W, G370Y
B31: R389R: HAB1, x printed at the wild-type residue; see doubts (protein, UniProt Q9CAJ0 23-511, looked up)
Protein phosphatase 2C 16: B1 Protein phosphatase 2C 16 with C363W
B32: R389H: HAB1 mutant (protein, UniProt Q9CAJ0 23-511, looked up, variant R389H)
Protein phosphatase 2C 16: B1 Protein phosphatase 2C 16 with C363W, R367H
B33: W385E: HAB1 mutant (protein, UniProt Q9CAJ0 23-511, looked up, variant W385E)
Protein phosphatase 2C 16: B1 Protein phosphatase 2C 16 with C363E
B34: R389V: HAB1 mutant (protein, UniProt Q9CAJ0 23-511, looked up, variant R389V)
Protein phosphatase 2C 16: B1 Protein phosphatase 2C 16 with C363W, R367V
B35: R389P: HAB1 mutant (protein, UniProt Q9CAJ0 23-511, looked up, variant R389P)
Protein phosphatase 2C 16: B1 Protein phosphatase 2C 16 with C363W, R367P
B36: R389I: HAB1 mutant (protein, UniProt Q9CAJ0 23-511, looked up, variant R389I)
Protein phosphatase 2C 16: B1 Protein phosphatase 2C 16 with C363W, R367I
B37: F391D: HAB1 mutant (protein, UniProt Q9CAJ0 23-511, looked up, variant F391D)
Protein phosphatase 2C 16: B1 Protein phosphatase 2C 16 with C363W, F369D
B38: R389Q: HAB1 mutant (protein, UniProt Q9CAJ0 23-511, looked up, variant R389Q)
Protein phosphatase 2C 16: B1 Protein phosphatase 2C 16 with C363W, R367Q
B39: W385H: HAB1 mutant (protein, UniProt Q9CAJ0 23-511, looked up, variant W385H)
Protein phosphatase 2C 16: B1 Protein phosphatase 2C 16 with C363H
B40: F391P: HAB1 mutant (protein, UniProt Q9CAJ0 23-511, looked up, variant F391P)
Protein phosphatase 2C 16: B1 Protein phosphatase 2C 16 with C363W, F369P
B41: W385F: HAB1 mutant (protein, UniProt Q9CAJ0 23-511, looked up, variant W385F)
Protein phosphatase 2C 16: B1 Protein phosphatase 2C 16 with C363F
B42: R389Y: HAB1 mutant (protein, UniProt Q9CAJ0 23-511, looked up, variant R389Y)
Protein phosphatase 2C 16: B1 Protein phosphatase 2C 16 with C363W, R367Y

Biological target: T1, PYR1
Assay: Yeast two hybrid of pACT-HAB1 site saturation mutants with pBD-PYR1 on 10 μM ABA, β-galactosidase staining
Type: cell-based
Set-up: key: x: Mutations in HAB1 that disrupt HAB1 interaction with PYR1
Details: S. cerevisiae Y190, 10 μM ABA; dead = lack of detectable staining in comparison to wild type control
Outline: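 Read-out is β-galactosidase staining of chloroform-lysed Y190 colonies grown 2 days at 30 °C on SD (-Leu,-Trp) plus 10 μM ABA. Each pACT-HAB1 single-substitution mutant (N-terminally truncated by three residues) was paired with pBD-PYR1; absence of detectable staining relative to wild type scored as dead.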

| Mutations in HAB1 that disrupt HAB1 interaction with PYR1 | Molecule |
| --- | --- |
| x | B1 |
| x | B2 |
| x | B3 |
| x | B4 |
| x | B5 |
| x | B6 |
| x | B7 |
| x | B8 |
| x | B9 |
| x | B10 |
| x | B11 |
| x | B12 |
| x | B13 |
| x | B14 |
| x | B15 |
| x | B16 |
| x | B17 |
| x | B18 |
| x | B19 |
| x | B20 |
| x | B21 |

| Mutations in HAB1 that disrupt HAB1 interaction with PYR1 | Molecule |
| --- | --- |
| x | B22 |
| x | B23 |
| x | B24 |
| x | B25 |
| x | B26 |
| x | B27 |
| x | B28 |
| x | B29 |
| x | B30 |
| x | B31 |
| x | B32 |
| x | B33 |
| x | B34 |
| x | B35 |
| x | B36 |
| x | B37 |
| x | B38 |
| x | B39 |
| x | B40 |
| x | B41 |
| x | B42 |
